In doi:10.1101/2025.09.02.673809:

Target: HLA-DQ8 molecule (DQA1*03:01-DQB1*03:02) (human)
Experiment: ProImmune REVEAL MHC-peptide binding assay

Binder: EALYLVCGNAVEVLK [insulin-derived 15-mer …]
- fold affinity against the reference peptide (T1D auto-antigen …): 41 fold
